Consider three molecules from patent publication US6140052, “cMYC is regulated by Tcf-4” (The Johns Hopkins University, dated 1998).

Experiment [1] deals with Myc-tagged hTcf-4 (epitope-tagged hTcf-4 in expression vector pCDNA) (human).
For experiment [2], the target named is T1, hTcf-4 (endogenous, in nuclear extracts or cells) (human).
T1 chain: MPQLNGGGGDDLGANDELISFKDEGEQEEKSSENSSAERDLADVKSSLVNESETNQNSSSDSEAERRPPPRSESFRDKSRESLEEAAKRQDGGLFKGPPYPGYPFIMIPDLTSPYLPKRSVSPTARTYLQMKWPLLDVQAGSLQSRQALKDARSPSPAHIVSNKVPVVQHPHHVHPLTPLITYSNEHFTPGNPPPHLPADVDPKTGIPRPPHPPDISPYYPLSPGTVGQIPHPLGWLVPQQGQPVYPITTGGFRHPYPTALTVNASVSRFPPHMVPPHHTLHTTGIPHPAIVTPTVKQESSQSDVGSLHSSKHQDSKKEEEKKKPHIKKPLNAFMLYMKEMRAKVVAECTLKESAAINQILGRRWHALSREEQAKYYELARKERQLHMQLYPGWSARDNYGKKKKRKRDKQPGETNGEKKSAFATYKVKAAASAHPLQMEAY
The experiment in a line: gel retardation of nuclear extracts of HT29-APC1 cells after 20 h Zn++ induction of APC. The procedure: Figure 2C: Figure 4: FIG. 4. Constitutive presence of β-catenin-hTcf-4 complexes in APC^{-/-} cells. Gel retardation assays were performed on nuclear extracts from the indicated cell lines before and after a 20-hour exposure to Zn^++. Samples in lanes 1, 4, 7, 10 were incubated under standard conditions. To the samples in lanes 2, 5, 8, 11, 0.25 μg, anti β-catenin was added. To the samples in lanes 3, 6, 9, 12, 0.25 μg of a control (human CD4) antibody was added. N.S., nonspecific band also observed with mutant (nonbinding) probe (lane Mt).
Gel retardation assays were performed as described elsewhere (7). Extracts were prepared from intact nuclei that were washed four times to avoid contamination with cytoplasmic β-catenin. As the optimal Tcf/Lef probe, we used a double-stranded 15-mer […] (SEQ ID NO: 12); the control probe was […] (SEQ ID NO:13). (All oligonudeotides were from Isogene, Holland). The β-catenin antibody was purchased from Transduction Laboratories (Lexington, Ky.). A typical binding reaction contained 3 μg nuclear protein, 0.1 ng radiolabeled probe, 100 ng of dIdC, in 25 μl of binding buffer (60 mm KCl, 1 mM EDTA, 1 mM DTT, 10% glycerol). Samples were incubated for 20 min at room temperature, antibody was added, and the samples incubated 20 min further.

As for “β-Cat S33Y (mutant β-catenin from SW48) (from UniProt P35222)”, the CRT reporter activity in 293 cells cotransfected with a Tcf-4 expression vector in experiment [1] worked out at 6 fold.

In experiment [1], “β-Cat Δ45 (mutant β-catenin from HCT116, deletion of Ser-45) (from UniProt P35222)” registered a CRT reporter activity in 293 cells cotransfected with a Tcf-4 expression vector of 6 fold.

B1: β-catenin (endogenous, human colorectal cancer cell lines HT29, SW480) (other)
chain: ATQADLMELDMAMEPDRKAAVSHWQQQSYLDSGIHSGATTTAPSLSGKGNPEEEDVDTSQVLYEWEQGFSQSFTQEQVADIDGQYAMTRAQRVRAAMFPETLDEGMQIPSTQFDAAHPTNVQRLAEPSQMLKHAVVNLINYQDDAELATRAIPELTKLLNDEDQVVVNKAAVMVHQLSKKEASRHAIMRSPQMVSAIVRTMQNTNDVETARCTAGTLHNLSHHREGLLAIFKSGGIPALVKMLGSPVDSVLFYAITTLHNLLLHQEGAKMAVRLAGGLQKMVALLNKTNVKFLAITTDCLQILAYGNQESKLIILASGGPQALVNIMRTYTYEKLLWTTSRVLKVLSVCSSNKPAIVEAGGMQALGLHLTDPSQRLVQNCLWTLRNLSDAATKQEGMEGLLGTLVQLLGSDDINVVTCAAGILSNLTCNNYKNKMMVCQVGGIEALVRTVLRAGDREDITEPAICALRHLTSRHQEAEMAQNAVRLHYGLPVVVKLLHPPSHWPLIKATVGLIRNLALCPANHAPLREQGAIPRLVQLLVRAHQDTQRRTSMGGTQQQFVEGVRMEEIVEGCTGALHILARDVHNRIVIRGLNTIPLFVQLLYSPIENIQRVAAGVLCELAQDKEAAEAIEAEGATAPLTELLHSRNEGVATYAAAVLFRMSEDKPQDYKKRLSVELTSSLFRTEPMAWNETADLGLDIGAQGEPLGYRQDDPSYRSFHSGGYGQDALGMDPMMEHEMGGHHPGADYPVDGLPDLGHAQDLMDGLPPGDSNQLAWFDTDL
For B1, the “decrease of the complex relative to uncomplexed hTcf-4 after Zn++ induction of APC” value in experiment [2] was 6 fold.
